# In PMC10682184, “Molecular basis for the catalytic mechanism of human neutral sphingomyelinases 1 (hSMPD2)” (Nature Communications, 2023):
# Biological target: the molecule itself
# Test: cryo-EM structure; apo hSMPD2 at about 10 mg/mL in 25 mM Hepes pH 7.4, 150 mM NaCl, 2 mM Mg2+, 0.005% LMNG; final map refined with C2 symmetry
protein,measurement,value
"human neutral sphingomyelinase 1 (hSMPD2), full length, wild type, twin-Strep tagged (enzyme, UniProt O60906 1-423, looked up, human SMPD2 (neutral sphingomyelinase 1), UniProt O60906, full length; cloned from human cDNA into pcDNA3.1(-); In the cryo-EM model the loop preceding TMH1 and residues 403-423 were disordered and not modelled; also called nSMase1; apo hSMPD2; source: HEK293F, transiently transfected, purified (membranes solubilised in LMNG, Strep-Tactin, size-exclusion chromatography)) MKPNFSLRLRIFNLNCWGIPYLSKHRADRMRRLGDFLNQESFDLALLEEVWSEQDFQYLRQKLSPTYPAAHHFRSGIIGSGLCVFSKHPIQELTQHIYTLNGYPYMIHHGDWFSGKAVGLLVLHLSGMVLNAYVTHLHAEYNRQKDIYLAHRVAQAWELAQFIHHTSKKADVVLLCGDLNMHPEDLGCCLLKEWTGLHDAYLETRDFKGSEEGNTMVPKNCYVSQQELKPFPFGVRIDYVLYKAVSGFYISCKSFETTTGFDPHRGTPLSDHEALMATLFVRHSPPQQNPSSTHGPAERSPLMCVLKEAWTELGLGMAQARWWATFASYVIGLGLLLLALLCVLAAGGGAGEAAILLWTPSVGLVLWAGAFYLFHVQEVNGLYRAQAELQHVLGRAREAQDLGPEPQPALLLGQQEGDRTKEQ",stoichiometry N,2
